Reference: the supplement of paper PMC10724198
Values joined by “and” are separate entries in the source; they are usually repeats but may differ in a detail not shown here. Equal values may be shown once. ± gives the standard deviation of the averaged measurements.

How the values were obtained:
Saccharomyces cerevisiae [1] = assay: protein stability index of tFT-peptide fusion in wild type (PSI (0-1 scale)); higher = more stable (slower turnover); details: genetic background: wild type
Saccharomyces cerevisiae [2] = assay: protein stability index of tFT-peptide fusion in deletion strain of DOA10 (PSI (0-1 scale)); higher = more stable (slower turnover)
Description: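 MPS profiling in S. cerevisiae of two library types built from selected 12-aa C-degron peptides (IN1, IN2, LN1, LN3, VN2, R1-R5, W1-W3, Atg1 and Rpa12 C-termini): saturation mutagenesis libraries and C-terminal +1 capping libraries (13 aa). Each peptide is fused to the C-terminus of a sfGFP-mCherry timer, after a GGGS linker. Cells are FACS-sorted into 8 mCherry/sfGFP bins and sequenced. PSI runs from 0 (unstable) to 1 (stable), measured once in wild type and in the das1Δ or doa10Δ background.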

Saccharomyces cerevisiae [3] = assay: protein stability index of tFT-peptide fusion (C-terminal peptide) (PSI (0-1 scale)); higher = more stable (slower turnover)
Description: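 MPS profiling in S. cerevisiae of the tFT-X12 degron library: putative degron peptides plus stable controls, 12 aa, fused to the C-terminus of a sfGFP-mCherry timer. Cells are FACS-sorted into 8 mCherry/sfGFP bins and deep-sequenced. PSI runs from 0 (unstable) to 1 (stable). Backgrounds are wild type, das1Δ and doa10Δ at 30 °C, and wild type, das1Δ, cdc34-1 and cdc53-1 at 37 °C; 2-3 technical replicates each.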

Saccharomyces cerevisiae [4] = assay: as above; details: genetic background: wild type; temperature: 30 C
Saccharomyces cerevisiae [5] = assay: protein stability index of tFT-peptide fusion in deletion strain of DAS1 (PSI (0-1 scale)); higher = more stable (slower turnover)
[6] = genetic background: cdc34-1, temperature: 37 C
[7] = genetic background: cdc53-1, temperature: 37 C
[8] = genetic background: das1 deletion, temperature: 30 C
[9] = genetic background: das1 deletion, temperature: 37 C
[10] = genetic background: doa10 deletion, temperature: 30 C
[11] = genetic background: wild type, temperature: 30 C
[12] = genetic background: wild type, temperature: 37 C
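Wherever protein stability index of tFT-peptide fusion (C-terminal peptide) is given: PSI is a weighted mean of sequencing reads over stability bins, variants kept only with over 10 reads, mCherry proximal and sfGFP distal, peptide attached via GGGS linker.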
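Wherever protein stability index of tFT-peptide fusion in deletion strain of DAS1 is given: PSI is a weighted mean of each variant's read distribution over the sorted stability bins, computed only for variants having over 10 reads in total.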
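Wherever protein stability index of tFT-peptide fusion in deletion strain of DOA10 is given: PSI per variant is the weighted mean of its sequencing read distribution over the sorted stability bins, counting only variants with over 10 reads summed across bins.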
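Wherever protein stability index of tFT-peptide fusion in wild type is given: PSI derived as read-weighted mean over the 8 sorting bins, only variants exceeding 10 total reads kept, mCherry placed adjacent to the peptide and sfGFP distal.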

| Sequence | protein stability index (Saccharomyces cerevisiae [1]) | protein stability index (Saccharomyces cerevisiae [2]) | further results |
| --- | --- | --- | --- |
| ADTLPMCPLLLR | 0.56 | 0.679 |  |
| AIELPMCPLLLR | 0.221 | 0.677 |  |
| AIMLPMCPLLLR | 0.258 | 0.612 |  |
| AITLPACPLLLR | 0.291 | 0.657 |  |
| AITLPECPLLLR | 0.467 | 0.677 |  |
| AITLPMCHLLLR | 0.158 | 0.663 |  |
| AITLPMCPCLLR | 0.367 | 0.651 |  |
| AITLPMCPGLLR | 0.635 | 0.673 |  |
| AITLPMCPLLHR | 0.628 | 0.716 |  |
| AITLPMCPLLLF | 0.462 | 0.512 |  |
| AITLPMCPLLLL | 0.558 | 0.625 |  |
| AITLPMCPLLLRE | 0.488 | 0.634 |  |
| AITLPMCPLLLRH | 0.222 | 0.646 |  |
| AITLPMCPLLLRI | 0.0995 | 0.485 |  |
| AITLPMCPLLLRR | 0.34 | 0.673 |  |
| AITLPMCPLLLRV | 0.11 | 0.334 |  |
| AITLPMCPLRLR | 0.453 | 0.666 |  |
| AITLPMCPRLLR | 0.648 | 0.675 |  |
| AITLPMDPLLLR | 0.627 | 0.681 |  |
| AITLPMRPLLLR | 0.176 | 0.637 |  |
| AITLPMYPLLLR | 0.161 | 0.651 |  |
| AITLPPCPLLLR | 0.232 | 0.673 |  |
| AITYPMCPLLLR | 0.287 | 0.655 |  |
| AQTLPMCPLLLR | 0.394 | 0.686 |  |
| ARWRVGLWRGAS | 0.37 |  | protein stability index (Saccharomyces cerevisiae [3]; [6]): 0.66 ± 0.033; protein stability index (Saccharomyces cerevisiae [3]; [7]): 0.7486 ± 0.0018; protein stability index (Saccharomyces cerevisiae [3]; [8]): 0.648 ± 0.021; protein stability index (Saccharomyces cerevisiae [3]; [9]): 0.764 ± 0.011; protein stability index (Saccharomyces cerevisiae [3]; [10]): 0.259 ± 0.0043; protein stability index (Saccharomyces cerevisiae [3]; [11]): 0.3 ± 0.035; protein stability index (Saccharomyces cerevisiae [3]; [12]): 0.612 ± 0.012; protein stability index (Saccharomyces cerevisiae [4]): 0.448 ± 0.028; protein stability index (Saccharomyces cerevisiae [5]): 0.679 |
| CCVSLPILLFFR | 0.0702 | 0.606 |  |
| CLVHLPILLFFR | 0.0596 | 0.56 |  |

| Sequence | protein stability index (Saccharomyces cerevisiae [1]) | protein stability index (Saccharomyces cerevisiae [2]) | further results |
| --- | --- | --- | --- |
| CLVLLPILLFFR | 0.0939 | 0.442 |  |
| CLVSLFILLFFR | 0.228 | 0.433 |  |
| CLVSLKILLFFR | 0.189 | 0.282 |  |
| CLVSLPICLFFR | 0.0838 | 0.593 |  |
| CLVSLPIILFFR | 0.0727 | 0.575 |  |
| CLVSLPILAFFR | 0.151 | 0.613 |  |
| CLVSLPILLFDR | 0.554 | 0.65 |  |
| CLVSLPILLFFP | 0.495 | 0.588 |  |
| CLVSLPILLFFY | 0.232 | 0.435 |  |
| CLVSLPILLLFR | 0.0579 | 0.579 |  |
| CLVSLPILLYFR | 0.0564 | 0.597 |  |
| CLVSLPILQFFR | 0.623 | 0.66 |  |
| CLVSLPTLLFFR | 0.0585 | 0.663 |  |
| CLVSLPVLLFFR | 0.0558 | 0.614 |  |
| CLVSLQILLFFR | 0.164 | 0.264 |  |
| CLVSLVILLFFR | 0.258 | 0.34 |  |
| CLVSMPILLFFR | 0.0734 | 0.601 |  |
| CLVSYPILLFFR | 0.0543 | 0.603 |  |
| CVTRLDAIYFRI | 0.194 | 0.71 |  |
| DITLPMCPLLLR | 0.39 | 0.655 |  |
| FLYMCSVGCWFR | 0.351 | 0.563 |  |
| FSMRWTFRYWVN | 0.0664 and 0.0463 |  | protein stability index (Saccharomyces cerevisiae [3]; [6]): 0.301 ± 0.016; protein stability index (Saccharomyces cerevisiae [3]; [7]): 0.545 ± 0.03; protein stability index (Saccharomyces cerevisiae [3]; [8]): 0.531 ± 0.025; protein stability index (Saccharomyces cerevisiae [3]; [9]): 0.573 ± 0.011; protein stability index (Saccharomyces cerevisiae [3]; [10]): 0.0438 ± 0.012; protein stability index (Saccharomyces cerevisiae [3]; [11]): 0.0542 ± 0.0043; protein stability index (Saccharomyces cerevisiae [3]; [12]): 0.0931 ± 0.022; protein stability index (Saccharomyces cerevisiae [4]): 0.112 ± 0.021; protein stability index (Saccharomyces cerevisiae [5]): 0.528 and 0.476 |
| GLCMCSVGCWFR | 0.256 | 0.608 |  |
| GLNMCSVGCWFR | 0.264 | 0.673 |  |
| GLYMCFVGCWFR | 0.233 | 0.402 |  |
| GLYMCSEGCWFR | 0.619 | 0.706 |  |
| GLYMCSRGCWFR | 0.436 | 0.677 |  |

| Sequence | protein stability index (Saccharomyces cerevisiae [1]) | protein stability index (Saccharomyces cerevisiae [2]) | further results |
| --- | --- | --- | --- |
| GLYMCSTGCWFR | 0.37 | 0.684 |  |
| GLYMCSVGCHFR | 0.621 | 0.663 |  |
| GLYMCSVGCMFR | 0.524 | 0.636 |  |
| GLYMCSVGCWFL | 0.506 | 0.598 |  |
| GLYMCSVGCWFRK | 0.435 | 0.648 |  |
| LVVYLSCVACIN | 0.0193 and 0.0155 |  | protein stability index (Saccharomyces cerevisiae [3]; [6]): 0.0319 ± 0.015; protein stability index (Saccharomyces cerevisiae [3]; [7]): 0.028 ± 0.0046; protein stability index (Saccharomyces cerevisiae [3]; [8]): 0.0277 ± 0.0056; protein stability index (Saccharomyces cerevisiae [3]; [9]): 0.0456 ± 0.0096; protein stability index (Saccharomyces cerevisiae [3]; [10]): 0.0223 ± 0.0051; protein stability index (Saccharomyces cerevisiae [3]; [11]): 0.0185 ± 0.0067; protein stability index (Saccharomyces cerevisiae [3]; [12]): 0.0515 ± 0.034; protein stability index (Saccharomyces cerevisiae [4]): 0.0328 ± 0.013; protein stability index (Saccharomyces cerevisiae [5]): 0.032 and 0.0307 |
| RLIQPLPVTFLN | 0.0559 |  | protein stability index (Saccharomyces cerevisiae [5]): 0.7 |
| RLIQPLYVQFLN | 0.0572 |  | protein stability index (Saccharomyces cerevisiae [5]): 0.629 |
| RLIQPYPVQFLN | 0.0613 |  | protein stability index (Saccharomyces cerevisiae [5]): 0.578 |
| SKHKKGQKQKIN | 0.153 |  | protein stability index (Saccharomyces cerevisiae [5]): 0.625 |
| STSCGYKFRTNN | 0.237 |  | protein stability index (Saccharomyces cerevisiae [5]): 0.669 |
| VNGAVGGWRLVG | 0.141 |  | protein stability index (Saccharomyces cerevisiae [5]): 0.68 |
| VRGAVGGSRLVG | 0.642 |  | protein stability index (Saccharomyces cerevisiae [5]): 0.669 |
| VRGAVGGWILVG | 0.25 |  | protein stability index (Saccharomyces cerevisiae [5]): 0.638 |
| VRGAVGGWKLVG | 0.203 |  | protein stability index (Saccharomyces cerevisiae [5]): 0.679 |
| VRGAVGGWRLGG | 0.69 |  | protein stability index (Saccharomyces cerevisiae [5]): 0.628 |
| VRGAVGGWRLSG | 0.403 |  | protein stability index (Saccharomyces cerevisiae [5]): 0.67 |
| VRGAVGGWRLVGI | 0.664 |  | protein stability index (Saccharomyces cerevisiae [5]): 0.679 |
| VRGAVGGWRLVL | 0.572 |  | protein stability index (Saccharomyces cerevisiae [5]): 0.68 |
| VRGAVGLWRLVG | 0.164 |  | protein stability index (Saccharomyces cerevisiae [5]): 0.675 |
| VRGAVVGWRLVG | 0.141 |  | protein stability index (Saccharomyces cerevisiae [5]): 0.66 |
| VRGAYGGWRLVG | 0.114 |  | protein stability index (Saccharomyces cerevisiae [5]): 0.664 |
| VTSCGYKFRTNN | 0.214 |  | protein stability index (Saccharomyces cerevisiae [5]): 0.674 |
| WDKRNHLIKLLN | 0.113 |  | protein stability index (Saccharomyces cerevisiae [5]): 0.602 |
| WRWRVGLWRGAS | 0.186 |  | protein stability index (Saccharomyces cerevisiae [5]): 0.764 |
| WVVYLSCVACIN | 0.0879 |  | protein stability index (Saccharomyces cerevisiae [5]): 0.0589 |
